T1: Human MAdCAM (human, UniProt Q13477 19-317, limits assumed)
T1 construct: also called huMAdCAM; human MAdCAM-1
T1 sequence (looked up): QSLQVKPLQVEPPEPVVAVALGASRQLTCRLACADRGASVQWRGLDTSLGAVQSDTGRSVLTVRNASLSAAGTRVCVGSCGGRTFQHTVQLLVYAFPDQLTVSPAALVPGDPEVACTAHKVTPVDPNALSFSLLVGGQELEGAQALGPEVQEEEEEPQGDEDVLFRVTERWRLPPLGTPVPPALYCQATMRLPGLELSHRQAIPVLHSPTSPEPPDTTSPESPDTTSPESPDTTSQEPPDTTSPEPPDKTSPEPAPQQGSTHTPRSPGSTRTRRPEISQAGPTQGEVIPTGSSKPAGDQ


Target: T1, Human MAdCAM
Assay: BLI Octet, AHC capture

Kd	koff	kon	Binder	binding result
20 nM	0.0113 s⁻¹	564000 M⁻¹ s⁻¹	MIAB133 (antibody, human IgG1, kappa, also called MIAB133-001) heavy: EVQLLESGGGLVQPGGSLRLSCAASGFTFSSFWMHWVRQAPGKGLEWISYISGDSGYTNYADSVKGRFTISRDNSKNTLYLQMNSLRAEDTAVYYCARDRPYYYYMDVWGKGTTVTVSSASTKGPSVFPLAPSSKSTSGGTAALGCLVKDYFPEPVTVSWNSGALTSGVHTFPAVLQSSGLYSLSSVVTVPSSSLGTQTYICNVNHKPSNTKVDKKVEPKSCDKTHTCPPCPAPEAAGAPSVFLFPPKPKDTLMISRTPEVTCVVVDVSHEDPEVKFNWYVDGVEVHNAKTKPREEQYNSTYRVVSVLTVLHQDWLNGKEYKCKVSNKALPAPIEKTISKAKGQPREPQVYTLPPSREEMTKNQVSLTCLVKGFYPSDIAVEWESNGQPENNYKTTPPVLDSDGSFFLYSKLTVDKSRWQQGNVFSCSVMHEALHNHYTQKSLSLSPGGGGGSAPTSSSTKKTQLQLEHLLLDLQMILNGINNYKNPKLTRMLTFKFYMPKKATELKHLQCLEEELKPLEEALNLAPSKNFHLRPRDLISDINVIVLELKGSETTFMCEYADETATIVEFINRWITFSQSIISTLT light: DIQMTQSPSSLSASVGDRVTITCRASQSVSRSLAWYQQKPGKAPKLLIYAASSLQSGVPSRFSGSGSGTDFTLTISSLQPEDFATYYCQQYKSYPVTFGQGTKVEIKRTVAAPSVFIFPPSDEQLKSGTASVVCLLNNFYPREAKVQWKVDNALQSGNSQESVTEQDSKDSTYSLSSTLTLSKADYEKHKVYACEVTHQGLSSPVTKSFNRGEC	–
–	–	–	MIAB136 (antibody, human IgG1, kappa, HCDR1 germlined) heavy: EVQLLESGGGLVQPGGSLRLSCAASGFTFSSYAMSWVRQAPGKGLEWISYISGDSGYTNYADSVKGRFTISRDNSKNTLYLQMNSLRAEDTAVYYCARDRPYYYYMDVWGKGTTVTVSSASTKGPSVFPLAPSSKSTSGGTAALGCLVKDYFPEPVTVSWNSGALTSGVHTFPAVLQSSGLYSLSSVVTVPSSSLGTQTYICNVNHKPSNTKVDKKVEPKSCDKTHTCPPCPAPEAAGAPSVFLFPPKPKDTLMISRTPEVTCVVVDVSHEDPEVKFNWYVDGVEVHNAKTKPREEQYNSTYRVVSVLTVLHQDWLNGKEYKCKVSNKALPAPIEKTISKAKGQPREPQVYTLPPSREEMTKNQVSLTCLVKGFYPSDIAVEWESNGQPENNYKTTPPVLDSDGSFFLYSKLTVDKSRWQQGNVFSCSVMHEALHNHYTQKSLSLSPGGGGGSAPTSSSTKKTQLQLEHLLLDLQMILNGINNYKNPKLTRMLTFKFYMPKKATELKHLQCLEEELKPLEEALNLAPSKNFHLRPRDLISDINVIVLELKGSETTFMCEYADETATIVEFINRWITFSQSIISTLT light: DIQMTQSPSSLSASVGDRVTITCRASQSVSRSLAWYQQKPGKAPKLLIYAASSLQSGVPSRFSGSGSGTDFTLTISSLQPEDFATYYCQQYKSYPVTFGQGTKVEIKRTVAAPSVFIFPPSDEQLKSGTASVVCLLNNFYPREAKVQWKVDNALQSGNSQESVTEQDSKDSTYSLSSTLTLSKADYEKHKVYACEVTHQGLSSPVTKSFNRGEC	no binding (tested: 150 nM)
203 nM	0.082 s⁻¹	404000 M⁻¹ s⁻¹	MIAB137 (antibody, human IgG1, kappa, HCDR2 germlined) heavy: EVQLLESGGGLVQPGGSLRLSCAASGFTFSDFWMHWVRQAPGKGLEWVSAISGSGGSTYYADSVKGRFTISRDNSKNTLYLQMNSLRAEDTAVYYCARDRPYYYYMDVWGKGTTVTVSSASTKGPSVFPLAPSSKSTSGGTAALGCLVKDYFPEPVTVSWNSGALTSGVHTFPAVLQSSGLYSLSSVVTVPSSSLGTQTYICNVNHKPSNTKVDKKVEPKSCDKTHTCPPCPAPEAAGAPSVFLFPPKPKDTLMISRTPEVTCVVVDVSHEDPEVKFNWYVDGVEVHNAKTKPREEQYNSTYRVVSVLTVLHQDWLNGKEYKCKVSNKALPAPIEKTISKAKGQPREPQVYTLPPSREEMTKNQVSLTCLVKGFYPSDIAVEWESNGQPENNYKTTPPVLDSDGSFFLYSKLTVDKSRWQQGNVFSCSVMHEALHNHYTQKSLSLSPGGGGGSAPTSSSTKKTQLQLEHLLLDLQMILNGINNYKNPKLTRMLTFKFYMPKKATELKHLQCLEEELKPLEEALNLAPSKNFHLRPRDLISDINVIVLELKGSETTFMCEYADETATIVEFINRWITFSQSIISTLT light: DIQMTQSPSSLSASVGDRVTITCRASQSVSRSLAWYQQKPGKAPKLLIYAASSLQSGVPSRFSGSGSGTDFTLTISSLQPEDFATYYCQQYKSYPVTFGQGTKVEIKRTVAAPSVFIFPPSDEQLKSGTASVVCLLNNFYPREAKVQWKVDNALQSGNSQESVTEQDSKDSTYSLSSTLTLSKADYEKHKVYACEVTHQGLSSPVTKSFNRGEC	–
–	–	–	PMAB21 (bispecific antibody, human IgG1, kappa) heavy: EVQLLESGGGLVQPGGSLRLSCAASGFTFSNSDMSWVRQAPGKGLEWVSGITISGGSTYYADSVKGRFTISRDNSKNTLYLQMNSLRAEDTAVYYCARGRGGSGWLDYWGQGTLVTVSSASTKGPSVFPLAPSSKSTSGGTAALGCLVKDYFPEPVTVSWNSGALTSGVHTFPAVLQSSGLYSLSSVVTVPSSSLGTQTYICNVNHKPSNTKVDKKVEPKSCDKTHTCPPCPAPEAAGAPSVFLFPPKPKDTLMISRTPEVTCVVVDVSHEDPEVKFNWYVDGVEVHNAKTKPREEQYNSTYRVVSVLTVLHQDWLNGKEYKCKVSNKALPAPIEKTISKAKGQPREPQVYTLPPSREEMTKNQVSLTCLVKGFYPSDIAVEWESNGQPENNYKTTPPVLDSDGSFFLYSKLTVDKSRWQQGNVFSCSVMHEALHNHYTQKSLSLSPGGGGGSGGGGSGGGGSEVQLLESGGGLVQPGGSLRLSCAASGFTFSDFAMHWVRQAPGKGLEWISYISGDSGYTNYADSVKGRFTISRDNSKNTLYLQMNSLRAEDTAVYYCARDRPYYYYMDVWGKGTTVTVSSGGGGSGGGGSGGGGSGGGGSDIQMTQSPSSLSASVGDRVTITCRASQSVSRSLAWYQQKPGKAPKLLIYAASSLQSGVPSRFSGSGSGTDFTLTISSLQPEDFATYYCQQYKSYPVTFGQGTKVEIK light: not shown	no binding (tested: 300 nM top concentration)
–	–	–	PMAB43 (bispecific antibody, human IgG1, kappa) heavy: EVQLLESGGGLVQPGGSLRLSCAASGFTFSNSDMSWVRQAPGKGLEWVSGITISGGSTYYADSVKGRFTISRDNSKNTLYLQMNSLRAEDTAVYYCARGRGGSGWLDYWGQGTLVTVSSASTKGPSVFPLAPSSKSTSGGTAALGCLVKDYFPEPVTVSWNSGALTSGVHTFPAVLQSSGLYSLSSVVTVPSSSLGTQTYICNVNHKPSNTKVDKKVEPKSCDKTHTCPPCPAPEAAGAPSVFLFPPKPKDTLMISRTPEVTCVVVDVSHEDPEVKFNWYVDGVEVHNAKTKPREEQYNSTYRVVSVLTVLHQDWLNGKEYKCKVSNKALPAPIEKTISKAKGQPREPQVYTLPPSREEMTKNQVSLTCLVKGFYPSDIAVEWESNGQPENNYKTTPPVLDSDGSFFLYSKLTVDKSRWQQGNVFSCSVMHEALHNHYTQKSLSLSPGGGGGSGGGGSGGGGSEVQLLESGGGLVQPGGSLRLSCAASGFTFSDFWMHWVRQAPGKGLEWISYISGDSGYTNYADSVKGRFTISRDNSKNTLYLQMNSLRAEDTAVYYCARDRPYYYYMDVWGKGTTVTVSSGGGGSGGGGSGGGGSGGGGSDIQMTQSPSSLSASVGDRVTITCRASQSVSRSLAWYQQKPGKAPKLLIYAASSLQSGVPSRFSGSGSGTDFTLTISSLQPEDFATYYCQQYKSYPRTFGQGTKVEIK light: not shown	no binding (tested: 200 nM top concentration)
–	–	–	PMAB38 (bispecific antibody, human IgG1, kappa) heavy: EVQLLESGGGLVQPGGSLRLSCAASGFTFSNSDMSWVRQAPGKGLEWVSGITISGGSTYYADSVKGRFTISRDNSKNTLYLQMNSLRAEDTAVYYCARGRGGSGWLDYWGQGTLVTVSSASTKGPSVFPLAPSSKSTSGGTAALGCLVKDYFPEPVTVSWNSGALTSGVHTFPAVLQSSGLYSLSSVVTVPSSSLGTQTYICNVNHKPSNTKVDKKVEPKSCDKTHTCPPCPAPEAAGAPSVFLFPPKPKDTLMISRTPEVTCVVVDVSHEDPEVKFNWYVDGVEVHNAKTKPREEQYNSTYRVVSVLTVLHQDWLNGKEYKCKVSNKALPAPIEKTISKAKGQPREPQVYTLPPSREEMTKNQVSLTCLVKGFYPSDIAVEWESNGQPENNYKTTPPVLDSDGSFFLYSKLTVDKSRWQQGNVFSCSVMHEALHNHYTQKSLSLSPGGGGGSGGGGSGGGGSEVQLLESGGGLVQPGGSLRLSCAASGFTFSDFWMHWVRQAPGKGLEWISYISGDSGYTNYADSVKGRFTISRDNSKNTLYLQMNSLRAEDTAVYYCARDRPYYYYMDVWGKGTTVTVSSGGGGSGGGGSGGGGSGGGGSDIQMTQSPSSLSASVGDRVTITCRASQSVSRYLAWYQQKPGKAPKLLIYAASSLQSGVPSRFSGSGSGTDFTLTISSLQPEDFATYYCQQYKSYPVTFGQGTKVEIK light: not shown	no binding (tested: 200 nM top concentration)
–	–	–	PMAB39 (bispecific antibody, human IgG1, kappa) heavy: EVQLLESGGGLVQPGGSLRLSCAASGFTFSNSDMSWVRQAPGKGLEWVSGITISGGSTYYADSVKGRFTISRDNSKNTLYLQMNSLRAEDTAVYYCARGRGGSGWLDYWGQGTLVTVSSASTKGPSVFPLAPSSKSTSGGTAALGCLVKDYFPEPVTVSWNSGALTSGVHTFPAVLQSSGLYSLSSVVTVPSSSLGTQTYICNVNHKPSNTKVDKKVEPKSCDKTHTCPPCPAPEAAGAPSVFLFPPKPKDTLMISRTPEVTCVVVDVSHEDPEVKFNWYVDGVEVHNAKTKPREEQYNSTYRVVSVLTVLHQDWLNGKEYKCKVSNKALPAPIEKTISKAKGQPREPQVYTLPPSREEMTKNQVSLTCLVKGFYPSDIAVEWESNGQPENNYKTTPPVLDSDGSFFLYSKLTVDKSRWQQGNVFSCSVMHEALHNHYTQKSLSLSPGGGGGSGGGGSGGGGSEVQLLESGGGLVQPGGSLRLSCAASGFTFSDFWMHWVRQAPGKGLEWISYISGDSGYTNYADSVKGRFTISRDNSKNTLYLQMNSLRAEDTAVYYCARDRPYYYYMDVWGKGTTVTVSSGGGGSGGGGSGGGGSGGGGSDIQMTQSPSSLSASVGDRVTITCRASQSVSRSLNWYQQKPGKAPKLLIYAASSLQSGVPSRFSGSGSGTDFTLTISSLQPEDFATYYCQQYKSYPVTFGQGTKVEIK light: not shown	no binding (tested: 200 nM top concentration)

From patent US20240132591A1 (PANDION OPERATIONS, published 2024)
